These results are taken from patent publication US20140134177A1 (ONCOMED PHARMACEUTICALS, published 2014).

The chains are these.
B5: RSPO1-CD4TM (ligand)
chain: SRGIKGKRQRRISAEGSQACAKGCELCSEVNGCLKCSPKLFILLERNDIRQVGVCLPSCPPGYFDARNPDMNKCIKCKIEHCEACFSHNFCTKCKEGLYLHKGRCYPACPEGSSAANGTMECSSPAQCEMSEWSPWGPCSKKQQLCGFRRGSEERTRRVLHAPVGDHAACSDTKETRRCTVRRVPCPEGQKRRKGGQGRRENANRNLARKESKEAGAGSRRRKGQQQQQQQGTVGPLTSAGPAMALIVLGGVAGLLLFIGLGIFF
notes: domain: transmembrane domain; also called cell-surface RSPO1; RSPO1 transfected cells

For the test “RSPO1-CD4TM”, the target named is B5. Description: FACS, Fc fusion on HEK 293 cells with RSPO1-CD4TM. As to the method: (§1) FIG. 7. RSPO1 Activates Beta-Catenin Signaling via Binding to LGR5. A) HEK 293 cells transiently transfected with RSPO1-CD4TM and GFP were incubated with LGR5-Fc, LRP6FL-Fc, LRP6E1-2-Fc, or FZD1-10-Fc as indicated. […] B) HEK 293 cells transiently transfected with […] and GFP were incubated in the presence of heparin with (in duplicate) RSPO1-Fc (top), FZD8-Fc (middle), or a FLAG antibody as a positive control (bottom). […] HEK 293 cells transiently transfected with FLAG-LGR5-CD4TM and GFP were incubated in the presence of heparin with RSPO1-Fc, RSPO2-Fc, RSPO3-Fc, RSPO4-Fc, FZD8-Fc, or a FLAG antibody as a positive control as indicated.
(§2) To determine the mechanism by which RSPO1 activates beta-catenin signaling, FACS analysis was used to assess binding between RSPO1 and LGR5. In certain embodiments, binding between soluble LGR5 and cell-surface RSPO1 was determined. A cell-surface RSPO1 protein was generated by ligating full-length human RSPO1 to the transmembrane domain of CD4 using standard recombinant DNA techniques (RSPO1-CD4TM). HEK 293 cells were transiently transfected RSPO1-CD4TM and GFP. After 48 hours, cells were suspended in ice cold PBS containing 2% FCS and then incubated on ice in the presence of LGR5-Fc, LRP6-ECD-Fc (containing the extracellular domain of human LRP6 fused to an Fc domain), LRP6E1-2-Fc (containing amino acids 1-629 of human LRP6 fused to an Fc domain), or various FZD-Fc constructs, including FZD1-10. […] Only a weak interaction between RSPO1 and the WNT co-receptor LRP6 was detected.

Another test addresses FZD2-Fc (UniProt Q14332 24-159). Description: FACS, Fc fusion on HEK 293 cells with RSPO1-CD4TM. As to the method: as §1, §2
A general note: In flow cytometry, cells or beads pass a laser one at a time.

The next test concerns the target T1, FZD1-Fc (UniProt Q9UP38 87-237).
T1 construct: also called FZD1-10-Fc; FZD-Fc constructs; not shown: Fc
Nature of the test: FACS, Fc fusion on HEK 293 cells with RSPO1-CD4TM. As to the method:
as §1, §2

The target in a further test is FZD7-Fc (UniProt O75084 33-170). Nature of the test: FACS, Fc fusion on HEK 293 cells with RSPO1-CD4TM. As to the method:
as §1, §2

A further test addresses T2, FLAG-LGR5-CD4TM (human, UniProt P01730 397-418, limits assumed).
T2 construct: domain: transmembrane domain; also called cell-surface LGR5; LGR5 transfected cells; not shown: N-terminal FLAG tag
Nature of the test: FACS, Fc fusion on HEK 293 cells with FLAG-LGR5-CD4TM, with heparin. As to the method:
In certain embodiments, binding between soluble RSPO1 and cell-surface LGR5 was determined. A variant cell-surface LGR5 protein was generated by ligating amino acids 22-564 of LGR5 to an N-terminal FLAG tag and to the transmembrane domain of CD4 using standard recombinant DNA techniques (FLAG-LGR5-CD4TM). HEK 293 cells were transiently transfected with FLAG-LGR5-CD4TM and GFP. After 48 hours, cells were suspended in ice cold PBS containing 2% FCS and heparin and then incubated on ice in the presence of RSPO1-Fc, FZD8-Fc, or a FLAG antibody as a positive control.

B1: FZD10-Fc (Fc fusion, UniProt Q9ULW2 21-154, looked up)
chain: ISSMDMERPGDGKCQPIEIPMCKDIGYNMTRMPNLMGHENQREAAIQLHEFAPLVEYGCHGHLRFFLCSLYAPMCTEQVSTPIPACRVMCEQARLKCSPIMEQFNFKWPDSLDCRKLPNKNDPNYLCMEAPNNG
notes: also called soluble FZD10; FZD1-10-Fc; not shown: Fc
Consider B1, for which the binding result with RSPO1-CD4TM was “no binding”.

B2: FZD5-Fc (Fc fusion, UniProt Q13467 27-157, looked up)
chain: ASKAPVCQEITVPMCRGIGYNLTHMPNQFNHDTQDEAGLEVHQFWPLVEIQCSPDLRFFLCSMYTPICLPDYHKPLPPCRSVCERAKAGCSPLMRQYGFAWPERMSCDRLPVLGRDAEVLCMDYNRSEATT
notes: also called FZD1-10-Fc; FZD-Fc constructs; not shown: Fc
For B2, the binding result with RSPO1-CD4TM was “no binding”.

B3: FZD9-Fc (Fc fusion, UniProt O00144 23-159, looked up)
chain: LEIGRFDPERGRGAAPCQAVEIPMCRGIGYNLTRMPNLLGHTSQGEAAAELAEFAPLVQYGCHSHLRFFLCSLYAPMCTDQVSTPIPACRPMCEQARLRCAPIMEQFNFGWPDSLDCARLPTRNDPHALCMEAPENA
notes: as for B2
Consider B3, for which the binding result in the test with RSPO1-CD4TM is “no binding”.

B4: FZD3-Fc (Fc fusion, UniProt Q9NPG1 23-143, looked up)
chain: HSLFSCEPITLRMCQDLPYNTTFMPNLLNHYDQQTAALAMEPFHPMVNLDCSRDFRPFLCALYAPICMEYGRVTLPCRRLCQRAYSECSKLMEMFGVPWPEDMECSRFPDCDEPYPRLVDL
notes: as for B2
B4: the binding result with RSPO1-CD4TM is on record as “no binding”.
On to B5, for which the binding result in the test with FZD2-Fc, in the test with FZD1-Fc and with FZD7-Fc was “no binding” throughout.

B6: FZD4-Fc (Fc fusion, UniProt Q9ULV1 40-170, looked up)
chain: EEERRCDPIRISMCQNLGYNVTKMPNLVGHELQTDAELQLTTFTPLIQYGCSSQLQFFLCSVYVPMCTEKINIPIGPCGGMCLSVKRRCEPVLKEFGFAWPESLNCSKFPPQNDHNHMCMEGPGDEEVPLP
notes: as for B2
Turning to B6, the binding result with RSPO1-CD4TM is on record as “no binding”.

B7: FZD6-Fc (Fc fusion, UniProt O60353 19-146, looked up)
chain: HSLFTCEPITVPRCMKMAYNMTFFPNLMGHYDQSIAAVEMEHFLPLANLECSPNIETFLCKAFVPTCIEQIHVVPPCRKLCEKVYSDCKKLIDTFGIRWPEELECDRLQYCDETVPVTFDPHTEFLGP
notes: as for B2
On to B7, for which the binding result in the test with RSPO1-CD4TM is reported as “no binding”.

B8: FZD8-Fc (Fc fusion, UniProt Q9H461 28-158, looked up)
chain: ASAKELACQEITVPLCKGIGYNYTYMPNQFNHDTQDEAGLEVHQFWPLVEIQCSPDLKFFLCSMYTPICLEDYKKPLPPCRSVCERAKAGCAPLMRQYGFAWPDRMRCDRLPEQGNPDTLCMDYNRTDLTT
notes: also called soluble FZD8; FZD1-10-Fc; not shown: Fc
As to B8, the binding result with RSPO1-CD4TM and with FLAG-LGR5-CD4TM was “no binding” each time.
